Patent publication US20210292396A1

Columns and labels:
Assay in all cases: cell-based or functional assay
[1] = biological target: Env of HIV isolate DU123.06 (clade C) (HIV)
[2] = biological target: Env of HIV isolate 7165.18 (clade B) (HIV)
[3] = biological target: Env of HIV isolate CNE40 (clade BC) (HIV)
[4] = biological target: HIV Env of isolate 16936-2.21 (HIV)
[5] = biological target: Env of HIV isolate BB201.B42 (clade A) (HIV)
[6] = biological target: Env of HIV isolate CH119.10 (clade BC) (HIV)
[7] = biological target: Env of HIV isolate T250-4 (clade AG) (HIV)
[8] = biological target: 208-member cross-clade virus panel
[9] = biological target: HIV Env of isolate CNE31 (HIV)
[10] = biological target: HIV Env of isolate CH119.10 (HIV)
[11] = biological target: Env of HIV isolate TRJO.58 (clade B) (HIV)
[12] = biological target: Env of HIV isolate MS208.A1 (clade A) (HIV)
[13] = biological target: Env of HIV isolate HT593.1 (clade B) (HIV)
[14] = biological target: Env of HIV isolate 5768.04 (clade B) (HIV)
[15] = biological target: HIV Env of isolate 6785.v5.c14 (HIV)
[16] = biological target: HIV Env of isolate CH181.12 (HIV)
[17] = biological target: HIV Env of isolate 247-23 (HIV)
[18] = biological target: Env of HIV isolate 3589.v1.c4 (clade AC) (HIV)
[19] = biological target: Env of HIV isolate CH070.1 (clade BC) (HIV)
[20] = biological target: Env of HIV isolate TRO.11 (clade B) (HIV)
[21] = biological target: Env of HIV isolate HO86.8 (clade B) (HIV)
[22] = biological target: Env of HIV isolate 928-28 (clade AG) (HIV)
[23] = biological target: Env of HIV isolate X2088.c9 (clade G) (HIV)
[24] = biological target: Env of HIV isolate CNE10 (clade B) (HIV)
[25] = biological target: HIV Env of isolate ZM109.4 (HIV)
[26] = biological target: Env of HIV isolate KER2008.12 (clade A) (HIV)
[27] = biological target: HIV Env of isolate CNE40 (HIV)
[28] = biological target: Env of HIV isolate 0330.v4.c3 (clade A) (HIV)
[29] = biological target: HIV Env of isolate A07412M1.vrc12 (HIV)
[30] = biological target: Envelope of SVA.MLV
[31] = biological target: Env of HIV isolate BI369.9A (clade A) (HIV)
[32] = biological target: Env of HIV isolate DU156.12 (clade C) (HIV)
[33] = biological target: Env of HIV isolate CNE21 (clade BC) (HIV)
[34] = biological target: Env of HIV isolate BR07.DG (clade B) (HIV)
[35] = biological target: Env of HIV isolate Bal.01 (clade B) (HIV)
[36] = biological target: Env of HIV isolate 16845-2.22 (clade C) (HIV)
[37] = biological target: HIV Env of isolate P1981.C5.3 (HIV)
[38] = biological target: HIV Env of isolate DU151.02 (HIV)
[39] = biological target: Env of HIV isolate X1254.c3 (clade G) (HIV)
[40] = biological target: Env of HIV isolate 247-23 (clade D) (HIV)
[41] = biological target: HIV Env of isolate TZBD.02 (HIV)
[42] = biological target: Env of HIV isolate ZM214.15 (clade C) (HIV)
[43] = biological target: HIV Env of isolate CE703010217.B6 (HIV)
[44] = biological target: Env of HIV isolate CNE7 (clade BC) (HIV)

B1: ePGT121.18 (ePGT121.18.H1 VH and ePGT121.17.L1 VL) (antibody, V domains shown)
VH: QMQLQESGPGLVKPGETLSLTCSVSGASISSSYWSWLRETPGKGLEWIGYTHHSGDTNYAPSLKSRVHLGLHPSKNQVSLSLTSVTAADTAVYYCARTLHGRRIYGVVAFNEYYTYFYWPTWGKGTQVTVSS
VL: SDISVAPGETVRITCGGESIGSRAVQWYQHRPGQAPRLIIYNNQDRPPGIPERFSGSPDIDFGTTATLTISNVEAGDEATYYCHIWDSRRPTNWELGPGTTLTVL
B1 showed an IC50, pseudovirus neutralization [1] of 2 ng/mL, an IC50, pseudovirus neutralization [2] of 1 ng/mL and an IC50, pseudovirus neutralization [3] of 15 ng/mL. For the same binder, the IC80, pseudovirus neutralization (M1) [4] was 3 ng/mL, the IC80, pseudovirus neutralization (M2) [4] was 5 ng/mL and the IC50, pseudovirus neutralization [5] was 2 ng/mL. It also gave an IC50, pseudovirus neutralization [6] of 4 ng/mL, an IC50, pseudovirus neutralization [7] of 0.8 ng/mL and a % vs Neutralized, IC50 < 0.01 ug/ml [8] of 56%. For the same binder, the % vs Neutralized, IC50 < 0.1 ug/ml [8] was 66%, the % vs Neutralized, IC50 < 1.0 ug/ml [8] was 71% and the % vs Neutralized, IC50 < 10 ug/ml [8] was 76%. The % vs Neutralized, IC50 < 50 ug/ml [8] was 78%, the % vs Neutralized, IC80 < 0.01 ug/ml (M1) [8] was 43.8% and the % vs Neutralized, IC80 < 0.01 ug/ml (M2) [8] was 38.5%. For the same binder, the % vs Neutralized, IC80 < 0.1 ug/ml (M1) [8] was 60.6%, the % vs Neutralized, IC80 < 0.1 ug/ml (M2) [8] was 59.6% and the % vs Neutralized, IC80 < 1.0 ug/ml (M1) [8] was 65.9%. For the same binder, the % vs Neutralized, IC80 < 1.0 ug/ml (M2) [8] was 65.9%, the % vs Neutralized, IC80 < 10 ug/ml (M1) [8] was 70.7% and the % vs Neutralized, IC80 < 10 ug/ml (M2) [8] was 69.7%. It also gave a % vs Neutralized, IC80 < 50 ug/ml (M1) [8] of 73.1%, a % vs Neutralized, IC80 < 50 ug/ml (M2) [8] of 72.6% and a Geometric Mean (IC50) [8] of 8.1 ng/mL. For the same binder, the Geometric Mean IC80 (M1) [8] was 17.7 ng/mL, the Geometric Mean IC80 (M2) [8] was 20.2 ng/mL and the Median IC50 [8] was 3 ng/mL. The Median IC80 (M1) [8] was 7 ng/mL, the Median IC80 (M2) [8] was 8 ng/mL and the Total VS Neutralized, IC50 < 0.01 ug/ml (viruses of 208) [8] was 116. The Total VS Neutralized, IC50 < 0.1 ug/ml (viruses of 208) [8] was 137, the Total VS Neutralized, IC50 < 1.0 ug/ml (viruses of 208) [8] was 148 and the Total VS Neutralized, IC50 < 10 ug/ml (viruses of 208) [8] was 159. For the same binder, the Total VS Neutralized, IC50 < 50 ug/ml (viruses of 208) [8] was 162, the Total VS Neutralized, IC80 < 0.01 ug/ml (M1) (viruses of 208) [8] was 91 and the Total VS Neutralized, IC80 < 0.01 ug/ml (M2) (viruses of 208) [8] was 80. The Total VS Neutralized, IC80 < 0.1 ug/ml (M1) (viruses of 208) [8] was 126, the Total VS Neutralized, IC80 < 0.1 ug/ml (M2) (viruses of 208) [8] was 124 and the Total VS Neutralized, IC80 < 1.0 ug/ml (M1) (viruses of 208) [8] was 137. For the same binder, the Total VS Neutralized, IC80 < 1.0 ug/ml (M2) (viruses of 208) [8] was 137, the Total VS Neutralized, IC80 < 10 ug/ml (M1) (viruses of 208) [8] was 147 and the Total VS Neutralized, IC80 < 10 ug/ml (M2) (viruses of 208) [8] was 145. For the same binder, the Total VS Neutralized, IC80 < 50 ug/ml (M1) (viruses of 208) [8] was 152, the Total VS Neutralized, IC80 < 50 ug/ml (M2) (viruses of 208) [8] was 151 and the IC80, pseudovirus neutralization (M1) [9] was 49 ng/mL. The IC80, pseudovirus neutralization (M2) [9] was 78 ng/mL, the IC80, pseudovirus neutralization (M1) [10] was 10 ng/mL and the IC80, pseudovirus neutralization (M2) [10] was 14 ng/mL. The IC50, pseudovirus neutralization [11] was 3 ng/mL, the IC50, pseudovirus neutralization [12] was > 50000 ng/mL and the IC50, pseudovirus neutralization [13] was 3 ng/mL. The IC50, pseudovirus neutralization [14] was 4 ng/mL, the IC80, pseudovirus neutralization (M1) [15] was 6 ng/mL and the IC80, pseudovirus neutralization (M2) [15] was 6 ng/mL. The IC80, pseudovirus neutralization (M1) [16] was 3 ng/mL, the IC80, pseudovirus neutralization (M2) [16] was 4 ng/mL and the IC80, pseudovirus neutralization (M1) [17] was > 50000 ng/mL. The IC80, pseudovirus neutralization (M2) [17] was > 50000 ng/mL, the IC50, pseudovirus neutralization [18] was 252 ng/mL and the IC50, pseudovirus neutralization [19] was 0.8 ng/mL. For the same binder, the IC50, pseudovirus neutralization [20] was 2 ng/mL, the IC50, pseudovirus neutralization [21] was > 50000 ng/mL and the IC50, pseudovirus neutralization [22] was 76 ng/mL. For the same binder, the IC50, pseudovirus neutralization [23] was 2 ng/mL, the IC50, pseudovirus neutralization [24] was 2 ng/mL and the IC80, pseudovirus neutralization (M1) [25] was > 50000 ng/mL. The IC80, pseudovirus neutralization (M2) [25] was > 50000 ng/mL, the IC50, pseudovirus neutralization [26] was 3 ng/mL and the IC80, pseudovirus neutralization (M1) [27] was 47 ng/mL. The IC80, pseudovirus neutralization (M2) [27] was 47 ng/mL, the IC50, pseudovirus neutralization [28] was 3 ng/mL and the IC80, pseudovirus neutralization (M1) [29] was 7 ng/mL. For the same binder, the IC80, pseudovirus neutralization (M2) [29] was 6 ng/mL, the IC80, pseudovirus neutralization (M1) [30] was > 50000 ng/mL and the IC80, pseudovirus neutralization (M2) [30] was > 50000 ng/mL. For the same binder, the IC50, pseudovirus neutralization [31] was 1 ng/mL, the IC50, pseudovirus neutralization [32] was 1 ng/mL and the IC50, pseudovirus neutralization [33] was 0.9 ng/mL. The IC50, pseudovirus neutralization [34] was 5 ng/mL, the IC50, pseudovirus neutralization [35] was 2 ng/mL and the IC50, pseudovirus neutralization [36] was 36 ng/mL. It also gave an IC80, pseudovirus neutralization (M1) [37] of 3 ng/mL, an IC80, pseudovirus neutralization (M2) [37] of 3 ng/mL and an IC80, pseudovirus neutralization (M1) [38] of 3 ng/mL. The IC80, pseudovirus neutralization (M2) [38] was 3 ng/mL, the IC50, pseudovirus neutralization [39] was 2 ng/mL and the IC50, pseudovirus neutralization [40] was > 50000 ng/mL. It also gave an IC80, pseudovirus neutralization (M1) [41] of 4 ng/mL, an IC80, pseudovirus neutralization (M2) [41] of 6 ng/mL and an IC50, pseudovirus neutralization [42] of 18 ng/mL. It also gave an IC80, pseudovirus neutralization (M1) [43] of 8 ng/mL, an IC80, pseudovirus neutralization (M2) [43] of 8 ng/mL and an IC50, pseudovirus neutralization [44] of 3 ng/mL.

B2: ePGT121.15.H2.L1 (antibody, V domains shown)
VH: QMQLQESGPGLVKPGETLSLTCSVSGASISSSYWSWLRETPGKGLEWIGYTHHSGDTNYAPSLKSRVHLGLHPSKNQVSLSLTSVTAADTAVYYCARTLHGRRIYGVVAFNEWFTYFYWEVWGKGTQVTVSS
VL: SDISVAPGETVRISCGGESIGSRAVQWYQHRAGQAPKLIIYNNQDRPPGIPERFSGSPDIDFGTTATLTITNVEAGDEATYYCHIWDSRRPTNWVFGGGTTLTVL
B2 showed a neutralization (Table 6 value) [29] of 0.000944.
